Results from patent US12037395 (IMMVIRA, dated 2024).

Columns and labels:
[1] = target: T1, biotin-labeled human PD-1 Fc protein (human, biotin-labeled (sites not given)); experiment: competition ELISA: blocks biotin PD-1-Fc binding to coated Nivolumab (competitor)
T1 construct: also called PD-1-Fc-biotin
Experimental: The next day, plates were washed with wash buffer, and blocked with 5% non-fatty milk in PBST for 2 hours at 37° C. […] Plates were finally washed using wash buffer. TMB was added and the reaction was stopped using 1M H_2SO_4, and the absorbance was read at 450 nm. Data were analyzed using Graphpad Prism software and $IC50$ values were reported.

[2] = target: T2, cynomolgus monkey PD-1-his protein (Acro biosystems, #PD-1-C5223) (cynomolgus monkey, UniProt B0LAJ3 25-170); experiment: SPR (Biacore T200), antibody captured, antigen flowed
T2 construct: Bought protein; also called Cynomolgus PD-1; Cynomolgus PD1
Source text: (§1) Briefly, goat […] (GE healthcare, Cat #BR100839, Human Antibody Capture Kit) was covalently linked to a CM5 chip (carboxy methyl dextran coated chip) via primary amines, using a standard amine coupling kit (GE healthcare, Pittsburgh, PA, USA) provided by Biacore. Unreacted moieties on the biosensor surface were blocked with ethanolamine. […] Then, recombinant human PD-1-his (Sino biological, #10377-H08H) or cynomolgus monkey PD-1-his protein (Acro biosystems, #PD-1-C5223) in HBS EP buffer (provided by Biacore) was flowed onto the chip at a flow rate of 30 μL/min. The antigen-antibody association kinetics was followed for 2 minutes and the dissociation kinetics was followed for 10 minutes. The association and dissociation curves were fit to a 1:1 *Langmuir* binding model using BIA evaluation software.

[3] = target: T3, recombinant human PD-1-his (Sino biological, #10377-H08H) (human, UniProt Q15116 25-167); experiment: as above
T3 construct: Bought protein; also called Human PD-1-his protein; not shown: his tag
Source text: as §1

[4] = target: T1, biotin-labeled human PD-1 Fc protein; experiment: competition ELISA: blocks biotin PD-1-Fc binding to coated PD-L1-Fc
Experimental: The next day, plates were washed with wash buffer (PBS+0.05% Tween-20, PBST), and blocked with 5% non-fatty milk in PBST for 2 hours at 37° C. Plates were then washed again using wash buffer.
After incubation at 37° C. for 40 minutes, plates were washed for 4 times using wash buffer. […] Plates were washed again using wash buffer. Finally, TMB was added and the reaction was stopped using 1M H_2SO_4, and the absorbance was read at 450 nm. Data were analyzed using Graphpad Prism software and $IC50$ values were reported.

[5] = target: human PD-1 on PD-1 Effector Cell Line (Genscript, GS-J2/PD-1) (human, UniProt Q15116 25-288); experiment: cell-based or functional assay
[6] = target: T1, biotin-labeled human PD-1 Fc protein; experiment: capture ELISA: antibody captured by anti-IgG Fc, biotin PD-1-Fc 60 nM
[7] = target: T3, recombinant human PD-1-his (Sino …); experiment: SPR (Biacore) as in Example 2

Binder | IC50 [1] [nM] | Kd [2] [nM] | kon [2] [M⁻¹ s⁻¹] | Kd [3] [nM] | koff [3] [s⁻¹] | kon [3] [M⁻¹ s⁻¹] | IC50 [4] [nM] | Reporter Activation (EC50, nM) human PD-1 cell (NFAT-luc)/human PD-L1 cell [5] [nM] | EC50 [6] [nM] | koff [2] [s⁻¹] | Kd [7] [nM]
mouse anti-PD-1 monoclonal antibody C1E1 (antibody, mouse IgG1, kappa, Purified from hybridoma; also called clone C1E1) heavy: EVMLVESGGGLVKPGGSLKLSCAASGFTFSSYLMSWVRQTPEKRLEWVATISGGGGDTYFPDSVKGRFTISRDNVKNNLYLQMSSLRSEDTALYYCVRFGGAGYYWYFDVWGAGTTVTVSSAKTTPPSVYPLAPGSAAQTNSMVTLGCLVKGYFPEPVTVTWNSGSLSSGVHTFPAVLQSDLYTLSSSVTVPSSTWPSETVTCNVAHPASSTKVDKKIVPRDCGCKPCICTVPEVSSVFIFPPKPKDVLTITLTPKVTCVVVDISKDDPEVQFSWFVDDVEVHTAQTQPREEQFNSTFRSVSELPIMHQDWLNGKEFKCRVNSAAFPAPIEKTISKTKGRPKAPQVYTIPPPKEQMAKDKVSLTCMITDFFPEDITVEWQWNGQPAENYKNTQPIMDTDGSYFVYSKLNVQKSNWEAGNTFTCSVLHEGLHNHHTEKSLSHSPGK light: not shown | 1.1 | 3.9 | 203000 | 0.342 | 5.88e-05 | 172000 | 0.26 | 9.11 | 0.16 |  | 
mouse anti-PD-1 monoclonal antibody D1F1 (antibody, mouse IgG1, kappa, V domains shown, Purified from hybridoma; Constant regions tied only generically to 'mouse antibodies') VH: EVMLVESGGGLVKPGGSLKLSCAASGFTFSSNTMSWVRQTPEKRLEWVAAISGGGVNTYYPDSVKGRFTISRDNARNTLYLQMSSLRSEDTALYYCARHGNYNYYGMDYWGQGTSVTVSS VL: not shown | 2.13 | 112 | 26000 | 2.83 | 0.000577 | 204000 | 0.2 | 10.8 | 0.24 | 0.00292 | 
mouse anti-PD-1 monoclonal antibody D2C2 (antibody, mouse IgG1, kappa, V domains shown, Purified from hybridoma; Constant regions tied only generically to 'mouse antibodies') VH: EVMLVESGGGLVKPGGSLKLSCAASGFTFSSNTMSWVRQTPEKRLEWVAAISGGGVDTYYPDSVKGRFTISRDNARNTLYLQMSSLRSEDTALYYCARHGNYNYYGMDYWGQGTSVTVSS VL: not shown | 1.89 | 116 | 20600 | 1.77 | 0.000307 | 173000 | 0.21 | 14.7 | 0.2 | 0.00238 | 
mouse anti-PD-1 monoclonal antibody D1F2 (antibody, mouse IgG1, kappa, V domains shown, Purified from hybridoma; Constant regions tied only generically to 'mouse antibodies') VH: EVMLVESGGGLVKPGGSLKLSCAASGFTFSSYTMSWVRQTPEKRLEWVATISGGGSNIYYPDSVEGRFTVSRDNARNTLYLHMSSLRSEDTALYYCVLNYAYAMDYWGQGTSVTVSS VL: DIQMTQTTSSLSASLGDRVTISCRASQDISNFLNWYQQKPDGTVKLLIYYTSRLQSGVPSRFSGTGSGTDYSLTISNLEQEDLATYFCQQGSSLPWTFGGGTKLEIKR | 1.4 | 31.7 | 200000 | 1.05 | 0.000203 | 194000 | 0.21 | 7.35 | 0.19 | 0.00632 | 
mouse anti-PD-1 monoclonal antibody C1A1 (antibody, mouse IgG1, kappa, V domains shown, Purified from hybridoma; Constant regions tied only generically to 'mouse antibodies') VH: QVTLKESGPGILKPSQTLSLTCSFSGFSLSTSGMGVGWIRQPSGKGLEWLAHIWWDDDKFYNPSLKSQLTISKDTSRNQVFLKITSVDTADTATYYCARTGGFITTGYWYFDVWGAGTTVTVSS VL: DIQMTQTTSSLSASLGDRVTISCRASQDISNYLIWYQQKTDGTLKLLIYYTSRLHSGVPSRFSGSGSGTDYSLTISNLEQEDIATYFCQQHKTLPWTFGGGTKLEIKR | 1.4 | 9.5 | 348000 | 1.13 | 0.000189 | 168000 | 0.27 | 12.1 | 0.18 | 0.00331 | 
mouse anti-PD-1 monoclonal antibody D1A1 (antibody, mouse IgG1, kappa, V domains shown, Purified from hybridoma; Constant regions tied only generically to 'mouse antibodies') VH: EVMLVESGGGLVKPGGSLKLSCAASGFTFSNYAMSWVRQTPEKRLEWVATISGGGGNIYYPDSVKGRFTISRDNARNTLYLQMSSLRSEDTALYYCASPYANYVWYLDVWGAGTTVTVSS VL: DIQMTQTTSSLSASLGDRVTISCRASQDISNYLNWYQQKPDGTVKLLIYYTSRLHSGVPSRFSGSGSGTDFSLTISNLEEEDIATYFCQQSNALPWTFGGGTKLEIKR | 1.28 | 11.3 | 210000 | 2.06 | 0.000386 | 188000 | 0.22 | 9.13 | 0.2 | 0.00236 | 
humanized anti-PD-1 antibody huC1E1-V1 (antibody, human IgG1, kappa, Human IgG1/kappa, expressed in 293F cells) heavy: not shown light: EIVLTQSPATLSLSPGERATLSCRASKSVDDSGISFMHWFQQKPGQPPRLLIYAASNQGSGVPARFSGSGSGTDFTLTISSLEPEDFAVYFCHQTKEVPWTFGQGTKVEIKRTVAAPSVFIFPPSDEQLKSGTASVVCLLNNFYPREAKVQWKVDNALQSGNSQESVTEQDSKDSTYSLSSTLTLSKADYEKHKVYACEVTHQGLSSPVTKSFNRGEC |  |  |  |  |  |  |  |  |  |  | 3.88
humanized anti-PD-1 antibody huC1E1-V2 (antibody, human IgG1, kappa, Human IgG1/kappa, expressed in 293F cells) heavy: not shown light: EIVLTQSPATLSLSPGERATLSCRASKSVDDSGISFMHWFQQKPGQPPRLLIYAASNQGSGVPARFSGSGSGTDFTLTISSLEPEDFAVYFCHQTKEVPWTFGQGTKVEIKRTVAAPSVFIFPPSDEQLKSGTASVVCLLNNFYPREAKVQWKVDNALQSGNSQESVTEQDSKDSTYSLSSTLTLSKADYEKHKVYACEVTHQGLSSPVTKSFNRGEC |  |  |  |  |  |  |  |  |  |  | 2.49
mouse anti-PD-1 monoclonal antibody C1F4 (antibody, mouse IgG1, kappa, V domains shown, Purified from hybridoma; Constant regions tied only generically to 'mouse antibodies') VH: QVQLQQSGAELVRPGVSVKISCKGSGYKFTDYAMHWVRQSHAKSLEWIGIISTYSGDVSFNQNFKGKATMTVDKSSSTAYMELARLTSEDSAIYYCSRLGITAGFAYWGQGTLVTVSA VL: DIVMTQSQKFMSTSVGDRVTITCKASQNVRTAVAWYQQKPGQSPKALIYLASNRHTGVPDRFTGSGSGTDFTLTISNVQSKDLADYFCLQHWNYPYTFGGGTKLEIKR | 2.26 | 17.3 | 301000 | 2.3 | 0.000359 | 156000 | 0.43 | 13.2 | 0.25 | 0.00521 | 
mouse anti-PD-1 monoclonal antibody C1C5 (antibody, mouse IgG1, kappa, V domains shown, Purified from hybridoma; Constant regions tied only generically to 'mouse antibodies') VH: QIQLVQSGPELKKPGETVKISCKASGYTFTNYGINWVKQAPGKGLKWMGWINTYSGEPTYSDDFKGRFAFSLETSASTAYLQINNLKNEDTSTYFCVRQGDFDYEDAMDYWGQGTSVTVSS VL: DVLMTQSPLSLPVSLGDQASISCRSSQSIVHSNGHIYLEWYLQKPGQSPKLLIYKVSKRFSGVPDRFSGSGSGTDFTLKISRVEAEDLGVYYCFQGSHGTFGGGTKLEIKR | 1.34 | 14.6 | 322000 | 0.88 | 0.000203 | 231000 | 0.23 | 23.4 | 0.16 | 0.0047 | 
mouse anti-PD-1 monoclonal antibody C1F5 (antibody, mouse IgG1, kappa, V domains shown, Purified from hybridoma; Constant regions tied only generically to 'mouse antibodies') VH: EVQLVESGGGLVKPGGSLKLSCAASGFAFSSYDMSWVRQTPEKRLEWVAYITGGGSSSFYPDTVKGRFTISRDNSKNTLYLQMTSLRSEDTAMYYCASPYLSYFDYWGQGTTLTVSS VL: DIVLTQSPATLSVTPGDSVSLSCRASQSISNNLHWYQQKSHESPRLLIKYGSQSMSGIPSRFSGSGSGTDFTLVINSVETEDFGMYFCQQSNSWPLTFGAGTKLELKR | 0.87 | 18.1 | 138000 | 0.372 | 0.000131 | 353000 | 0.21 | 7.58 | 0.16 | 0.00249 | 
mouse anti-PD-1 monoclonal antibody C1E2 (antibody, mouse IgG1, kappa, V domains shown, Purified from hybridoma; Constant regions tied only generically to 'mouse antibodies') VH: QVQLQQSGAELVRPGTSVKISCKASGYTFTNYWLGWVKQRPGHGLEWIGDIYPGGGYTNYNENFKGKATLTADTSSSTAYMQLSSLTSEDSAVFFCARGYGTNYWYFDVWGAGTTVTVSS VL: SIVMTQTPKFLLVSAGDRVTITCKASQSVSNDVAWYQQKPGQSPKLLIYYAFHRYTGVPDRFTGSGYGTDFTFTISTVQAEDLAVYFCQQDYSSPYTFGGGTKLEIKR | 1.49 | 12.5 | 238000 | 2.88 | 0.000442 | 153000 | 0.25 | 11.1 | 0.2 | 0.00298 | 
